For one substance, MFI results are on record in patent US20260174885A1.

Test [1] deals with human epidermal growth factor receptor (human EGFR) (human) (UniProt P00533). As to the kind of experiment: flow cytometry, BD FACS Aria; WI-38 cells stained with PE-anti hEGFR antibody for 30 minutes on ice.
Test [2] has the same target. As to the kind of experiment: flow cytometry, Beckman Coulter CytoFLEX S; U87MG cells stained with PE-anti hEGFR antibody for 30 minutes on ice.
Test [3] has the same target. Nature of the test: flow cytometry, Beckman Coulter CytoFLEX S; WI-38 cells stained with PE-anti hEGFR antibody for 30 minutes on ice. (In flow cytometry, cells or beads pass a laser one at a time.)
The target is the same in test [4]. Nature of the test: flow cytometry, BD FACS Aria; MCF-7 cells (low EGFR expression) stained with PE-anti hEGFR antibody for 30 minutes on ice.
Test [5] shares this target. As to the kind of experiment: flow cytometry, BD FACS Aria; RencaEGFR M1 H cells (human EGFR on the cell surface) stained with PE-anti hEGFR antibody for 30 minutes on ice.

As for “PE-anti hEGFR antibody (Biolegend, Cat #352904)”, the MFI in test [1] was 53300; in test [2], 1020; in test [3], 1100; in test [4], 2670; in test [5], 834000.
